According to US20090178146:

Legend:
[1] = tested on: GST-fused peptide corresponding to the SP-3 motif (amino acids 264-295) of NFAT1, wild type
[2] = tested on: GST-fused SP-3 peptide of NFAT1 (amino acids 264-295) with Ser>Ala substitutions in the serines phosphorylated in cells

recombinant DYRK1A protein kinase (Upstate Biotechnology), bacterially expressed
in vitro kinase assay with recombinant kinase, phosphorylation of GST-peptide [1]: DYRK2 and DYRK1A both displayed strong and selective kinase activity towards the SP-3 motif of NFAT1
in vitro kinase assay with recombinant kinase, phosphorylation of GST-peptide [2]: neither kinase phosphorylated an SP-3 peptide with Ser>Ala substitutions in the specific serine residues known to be phosphorylated in cells
